Experimental data: patent US20250011363A1, “OPTIMIZED SHORTENED PEPTIDE THAT BINDS TO ACETYLCHOLINE RECEPTOR, AND USE THEREOF” (SKINMED CO., LTD., priority 2021, published 2025)

Experiments:
[1] = target: acetylcholine receptor on acetylcholine receptor-overexpressing TE671 cells; experiment: cell-based or functional assay
acetylcholine receptor = experiment: SPR, AchR immobilized on chip

Question: What does the source list for Synake (peptide)?
Answer: inhibition of acetylcholine receptors (calcium imaging with Fura-2-AM, TE671 cells, nicotine 400 uM) [1]: 500 µM; Binding affinity (RU) (acetylcholine receptor): 14 RU
